# Like-named read-outs stand apart in the source and are kept apart here. Square brackets hold non-standard residues; d marks the D form. Ends that are not written are not given here. Aib = CC(C)(N)C(=O)O
# Experiments:
# Assay in all cases: cell-based or functional assay
# [1] = biological target: human GLP-1 receptor (hGLP1R) (human, UniProt P43220 24-463)
# [2] = biological target: T1, human secretin receptor (hSCTR) (human, UniProt P47872 23-440)
# [3] = biological target: T1, human secretin receptor (hSCTR); remark: listed apart in the source
# T1 sequence (P47872 23-440): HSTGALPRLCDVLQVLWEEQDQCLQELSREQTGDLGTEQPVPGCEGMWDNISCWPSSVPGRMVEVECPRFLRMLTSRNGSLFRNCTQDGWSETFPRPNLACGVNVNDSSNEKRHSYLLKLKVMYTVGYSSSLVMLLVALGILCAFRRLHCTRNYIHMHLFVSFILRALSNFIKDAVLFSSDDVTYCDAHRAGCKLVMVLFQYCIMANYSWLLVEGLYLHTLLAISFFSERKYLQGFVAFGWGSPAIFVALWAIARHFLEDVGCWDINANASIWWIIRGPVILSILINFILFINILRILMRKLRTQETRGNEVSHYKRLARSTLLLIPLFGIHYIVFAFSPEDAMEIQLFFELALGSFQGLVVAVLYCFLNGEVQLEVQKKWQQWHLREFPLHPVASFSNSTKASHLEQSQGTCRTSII
Binder,pEC50 hGLPR1 [1],pEC50 hSCTR [2],pEC50 hSCTR [3]
H[Aib]EGTFTSDLSVLLEGAALQRFIQWLV-NH2 (N-terminus assumed; SMILES CC[C@H](C)[C@H](NC(=O)[C@H](Cc1ccccc1)NC(=O)[C@H](CCCNC(=N)N)NC(=O)[C@H](CCC(N)=O)NC(=O)[C@H](CC(C)C)NC(=O)[C@H](C)NC(=O)[C@H](C)NC(=O)CNC(=O)[C@H](CCC(=O)O)NC(=O)[C@H](CC(C)C)NC(=O)[C@H](CC(C)C)NC(=O)[C@@H](NC(=O)[C@H](CO)NC(=O)[C@H](CC(C)C)NC(=O)[C@H](CC(=O)O)NC(=O)[C@H](CO)NC(=O)[C@@H](NC(=O)[C@H](Cc1ccccc1)NC(=O)[C@@H](NC(=O)CNC(=O)[C@H](CCC(=O)O)NC(=O)C(C)(C)NC(=O)[C@@H](N)Cc1c[nH]cn1)[C@@H](C)O)[C@@H](C)O)C(C)C)C(=O)N[C@@H](CCC(N)=O)C(=O)N[C@@H](Cc1c[nH]c2ccccc12)C(=O)N[C@@H](CC(C)C)C(=O)N[C@H](C(N)=O)C(C)C) [SEQ ID NO: 227],10.5 -log M,8.9 -log M,
H[Aib]EGTFTSDWSRLLEGAALQRFIQWLV-NH2 (N-terminus assumed; SMILES CC[C@H](C)[C@H](NC(=O)[C@H](Cc1ccccc1)NC(=O)[C@H](CCCNC(=N)N)NC(=O)[C@H](CCC(N)=O)NC(=O)[C@H](CC(C)C)NC(=O)[C@H](C)NC(=O)[C@H](C)NC(=O)CNC(=O)[C@H](CCC(=O)O)NC(=O)[C@H](CC(C)C)NC(=O)[C@H](CC(C)C)NC(=O)[C@H](CCCNC(=N)N)NC(=O)[C@H](CO)NC(=O)[C@H](Cc1c[nH]c2ccccc12)NC(=O)[C@H](CC(=O)O)NC(=O)[C@H](CO)NC(=O)[C@@H](NC(=O)[C@H](Cc1ccccc1)NC(=O)[C@@H](NC(=O)CNC(=O)[C@H](CCC(=O)O)NC(=O)C(C)(C)NC(=O)[C@@H](N)Cc1c[nH]cn1)[C@@H](C)O)[C@@H](C)O)C(=O)N[C@@H](CCC(N)=O)C(=O)N[C@@H](Cc1c[nH]c2ccccc12)C(=O)N[C@@H](CC(C)C)C(=O)N[C@H](C(N)=O)C(C)C) [SEQ ID NO: 219],,,8.2 -log M
H[Aib]EGTFTSDYSRLLEGAALQRFIQWLV-NH2 (N-terminus assumed; SMILES CC[C@H](C)[C@H](NC(=O)[C@H](Cc1ccccc1)NC(=O)[C@H](CCCNC(=N)N)NC(=O)[C@H](CCC(N)=O)NC(=O)[C@H](CC(C)C)NC(=O)[C@H](C)NC(=O)[C@H](C)NC(=O)CNC(=O)[C@H](CCC(=O)O)NC(=O)[C@H](CC(C)C)NC(=O)[C@H](CC(C)C)NC(=O)[C@H](CCCNC(=N)N)NC(=O)[C@H](CO)NC(=O)[C@H](Cc1ccc(O)cc1)NC(=O)[C@H](CC(=O)O)NC(=O)[C@H](CO)NC(=O)[C@@H](NC(=O)[C@H](Cc1ccccc1)NC(=O)[C@@H](NC(=O)CNC(=O)[C@H](CCC(=O)O)NC(=O)C(C)(C)NC(=O)[C@@H](N)Cc1c[nH]cn1)[C@@H](C)O)[C@@H](C)O)C(=O)N[C@@H](CCC(N)=O)C(=O)N[C@@H](Cc1c[nH]c2ccccc12)C(=O)N[C@@H](CC(C)C)C(=O)N[C@H](C(N)=O)C(C)C) [SEQ ID NO: 217],,,8.8 -log M
H[Aib]EGTFTSDLSYLLEGAALQRFIQWLV-NH2 (N-terminus assumed; SMILES CC[C@H](C)[C@H](NC(=O)[C@H](Cc1ccccc1)NC(=O)[C@H](CCCNC(=N)N)NC(=O)[C@H](CCC(N)=O)NC(=O)[C@H](CC(C)C)NC(=O)[C@H](C)NC(=O)[C@H](C)NC(=O)CNC(=O)[C@H](CCC(=O)O)NC(=O)[C@H](CC(C)C)NC(=O)[C@H](CC(C)C)NC(=O)[C@H](Cc1ccc(O)cc1)NC(=O)[C@H](CO)NC(=O)[C@H](CC(C)C)NC(=O)[C@H](CC(=O)O)NC(=O)[C@H](CO)NC(=O)[C@@H](NC(=O)[C@H](Cc1ccccc1)NC(=O)[C@@H](NC(=O)CNC(=O)[C@H](CCC(=O)O)NC(=O)C(C)(C)NC(=O)[C@@H](N)Cc1c[nH]cn1)[C@@H](C)O)[C@@H](C)O)C(=O)N[C@@H](CCC(N)=O)C(=O)N[C@@H](Cc1c[nH]c2ccccc12)C(=O)N[C@@H](CC(C)C)C(=O)N[C@H](C(N)=O)C(C)C) [SEQ ID NO: 229],10.8 -log M,8 -log M,
H[Aib]EGTFTSDLSGLLEGAALQRFIQWLV-NH2 (N-terminus assumed; SMILES CC[C@H](C)[C@H](NC(=O)[C@H](Cc1ccccc1)NC(=O)[C@H](CCCNC(=N)N)NC(=O)[C@H](CCC(N)=O)NC(=O)[C@H](CC(C)C)NC(=O)[C@H](C)NC(=O)[C@H](C)NC(=O)CNC(=O)[C@H](CCC(=O)O)NC(=O)[C@H](CC(C)C)NC(=O)[C@H](CC(C)C)NC(=O)CNC(=O)[C@H](CO)NC(=O)[C@H](CC(C)C)NC(=O)[C@H](CC(=O)O)NC(=O)[C@H](CO)NC(=O)[C@@H](NC(=O)[C@H](Cc1ccccc1)NC(=O)[C@@H](NC(=O)CNC(=O)[C@H](CCC(=O)O)NC(=O)C(C)(C)NC(=O)[C@@H](N)Cc1c[nH]cn1)[C@@H](C)O)[C@@H](C)O)C(=O)N[C@@H](CCC(N)=O)C(=O)N[C@@H](Cc1c[nH]c2ccccc12)C(=O)N[C@@H](CC(C)C)C(=O)N[C@H](C(N)=O)C(C)C) [SEQ ID NO: 226],10.5 -log M,8.3 -log M,
H[Aib]EGTFTSDLSFLLEGAALQRFIQWLV-NH2 (N-terminus assumed; SMILES CC[C@H](C)[C@H](NC(=O)[C@H](Cc1ccccc1)NC(=O)[C@H](CCCNC(=N)N)NC(=O)[C@H](CCC(N)=O)NC(=O)[C@H](CC(C)C)NC(=O)[C@H](C)NC(=O)[C@H](C)NC(=O)CNC(=O)[C@H](CCC(=O)O)NC(=O)[C@H](CC(C)C)NC(=O)[C@H](CC(C)C)NC(=O)[C@H](Cc1ccccc1)NC(=O)[C@H](CO)NC(=O)[C@H](CC(C)C)NC(=O)[C@H](CC(=O)O)NC(=O)[C@H](CO)NC(=O)[C@@H](NC(=O)[C@H](Cc1ccccc1)NC(=O)[C@@H](NC(=O)CNC(=O)[C@H](CCC(=O)O)NC(=O)C(C)(C)NC(=O)[C@@H](N)Cc1c[nH]cn1)[C@@H](C)O)[C@@H](C)O)C(=O)N[C@@H](CCC(N)=O)C(=O)N[C@@H](Cc1c[nH]c2ccccc12)C(=O)N[C@@H](CC(C)C)C(=O)N[C@H](C(N)=O)C(C)C) [SEQ ID NO: 225],10.6 -log M,8.1 -log M,
H[Aib]EGTFTSDLSWLLEGAALQRFIQWLV-NH2 (N-terminus assumed; SMILES CC[C@H](C)[C@H](NC(=O)[C@H](Cc1ccccc1)NC(=O)[C@H](CCCNC(=N)N)NC(=O)[C@H](CCC(N)=O)NC(=O)[C@H](CC(C)C)NC(=O)[C@H](C)NC(=O)[C@H](C)NC(=O)CNC(=O)[C@H](CCC(=O)O)NC(=O)[C@H](CC(C)C)NC(=O)[C@H](CC(C)C)NC(=O)[C@H](Cc1c[nH]c2ccccc12)NC(=O)[C@H](CO)NC(=O)[C@H](CC(C)C)NC(=O)[C@H](CC(=O)O)NC(=O)[C@H](CO)NC(=O)[C@@H](NC(=O)[C@H](Cc1ccccc1)NC(=O)[C@@H](NC(=O)CNC(=O)[C@H](CCC(=O)O)NC(=O)C(C)(C)NC(=O)[C@@H](N)Cc1c[nH]cn1)[C@@H](C)O)[C@@H](C)O)C(=O)N[C@@H](CCC(N)=O)C(=O)N[C@@H](Cc1c[nH]c2ccccc12)C(=O)N[C@@H](CC(C)C)C(=O)N[C@H](C(N)=O)C(C)C) [SEQ ID NO: 228],10.8 -log M,9.1 -log M,
